This note sets out measurements from paper doi:10.1101/2021.01.29.428744.

The assay has as its target AlexaFluor594-tagged α-SYN pre-formed fibrils (PFFs) (human) (UniProt P37840). The assay is described as follows: two-color coincidence detection.

On to “[…]1 (from UniProt Q9H0R8 1-117) (natural protein)”, for which the relative presence of GFP species in the aggregates is 0.14.
